For data set [1], the target named is MAEB hybrid gyrase (MsGyrA + EcGyrB) (Mycobacterium smegmatis / Escherichia …, UniProt P48354;P0AES6 1-842;1-804). In words: EMSA; one complex; EMSA: 35 mM Tris-HCl pH 7.5, 1 mM spermidine, 25 mM K-glutamate, 90 ug/ml tRNA, 1.4 mM ATP, 50 ug/ml BSA, room temp (25 C), 1 nM DNA; filter binding: same mix o.
In data set [2] the target is DNA gyrase holoenzyme (EcGyr) (Escherichia coli, UniProt P0AES4;P0AES6 1-875;1-804). In words: EMSA; 1.4 mM ATP; one complex; EMSA: 35 mM Tris-HCl pH 7.5, 1 mM spermidine, 25 mM K-glutamate, 90 ug/ml tRNA, 1.4 mM ATP, 50 ug/ml BSA, room temp (25 C), 1 nM DNA; filter binding: same mix o. Background: In EMSA bound probe runs differently from free probe, usually more slowly.

Data set [3] addresses EAMB hybrid gyrase (EcGyrA + MsGyrB) (Escherichia coli / Mycobacterium …, UniProt P0AES4;P0C559 1-875;1-675). In words: EMSA; two complexes; EMSA: 35 mM Tris-HCl pH 7.5, 1 mM spermidine, 25 mM K-glutamate, 90 ug/ml tRNA, 1.4 mM ATP, 50 ug/ml BSA, room temp (25 C), 1 nM DNA; filter binding: same mix on ice; SPR: 33 mM Tris-HCl pH 8.0, 5 mM MgCl2, 3 mM DTT, 25 C. The conditions noted are these: protein: recombinant; chain copies: 2;2; label: 32P 5'-end; blunt.

The target in the next data set is GyrB (MsGyrB) (Mycobacterium smegmatis, UniProt P0C559 1-675). In words: EMSA; 0.1 and 0.2 uM GyrB; EMSA: 35 mM Tris-HCl pH 7.5, 1 mM spermidine, 25 mM K-glutamate, 90 ug/ml tRNA, 1.4 mM ATP, 50 ug/ml BSA, room temp (25 C), 1 nM DNA; filter binding: same mix on ice; SPR: 33 mM Tris-HCl pH 8.0, 5 mM MgCl2, 3 mM DTT, 25 C. As to conditions: protein: recombinant; label: 32P 5'-end; blunt.

The target in data set [4] is Topoisomerase IV holoenzyme (Escherichia coli, UniProt P0AFI2;P20083 1-752;1-630). In words: EMSA; 5-40 nM; two complexes; EMSA: 35 mM Tris-HCl pH 7.5, 1 mM spermidine, 25 mM K-glutamate, 90 ug/ml tRNA, 1.4 mM ATP, 50 ug/ml BSA, room temp (25 C), 1 nM DNA; filter binding: same mix on ice; SPR: 33 mM Tris-HCl pH 8.0, 5 mM MgCl2, 3 mM DTT, 25 C. The conditions noted are these: protein: recombinant; chain copies: 2;2; label: 32P 5'-end; blunt.

Data set [5] concerns the target T1, DNA gyrase holoenzyme (MsGyr) (Mycobacterium smegmatis, UniProt P48354;P0C559 1-842;1-675). In words: EMSA; 1.4 mM ATP; two complexes; EMSA: 35 mM Tris-HCl pH 7.5, 1 mM spermidine, 25 mM K-glutamate, 90 ug/ml tRNA, 1.4 mM ATP, 50 ug/ml BSA, room temp (25 C), 1 nM DNA; filter binding: same mix on ice; SPR: 33 mM Tris-HCl pH 8.0, 5 mM MgCl2, 3 mM DTT, 25 C. The conditions noted are these: protein: recombinant, chain copies: 2;2, blunt.

The next data set deals with GyrB R321A (Mycobacterium smegmatis, UniProt P0C559 1-675, R321A). In words: EMSA; 200 and 400 nM; complex not seen; EMSA: 35 mM Tris-HCl pH 7.5, 1 mM spermidine, 25 mM K-glutamate, 90 ug/ml tRNA, 1.4 mM ATP, 50 ug/ml BSA, room temp (25 C), 1 nM DNA; filter binding: same mix on ice; SPR: 33 mM Tris-HCl pH 8.0, 5 mM MgCl2, 3 mM DTT, 25 C. The conditions noted are these: protein: recombinant; label: 32P 5'-end; blunt.

In another data set the target is ParE (Escherichia coli, UniProt P20083 1-630). In words: filter binding; 20 nM protein; most efficient of those tested; EMSA: 35 mM Tris-HCl pH 7.5, 1 mM spermidine, 25 mM K-glutamate, 90 ug/ml tRNA, 1.4 mM ATP, 50 ug/ml BSA, room temp (25 C), 1 nM DNA; filter binding: same mix on ice; SPR: 33 mM Tris-HCl pH 8.0, 5 mM MgCl2, 3 mM DTT, 25 C. The conditions noted are these: protein: recombinant; label: 32P 5'-end; blunt.

Data set [6] concerns the target T1, DNA gyrase holoenzyme (MsGyr). In words: pull-down; first DNA, then 240 bp; 200 nM enzyme; EMSA: 35 mM Tris-HCl pH 7.5, 1 mM spermidine, 25 mM K-glutamate, 90 ug/ml tRNA, 1.4 mM ATP, 50 ug/ml BSA, room temp (25 C), 1 nM DNA; filter binding: same mix on ice; SPR: 33 mM Tris-HCl pH 8.0, 5 mM MgCl2, 3 mM DTT, 25 C. As to conditions: protein: recombinant; chain copies: 2;2; label: biotin on one strand, 32P on complement; blunt.

The target is the same in data set [7]. In words: EMSA; 1.4 mM ATP; one complex; EMSA: 35 mM Tris-HCl pH 7.5, 1 mM spermidine, 25 mM K-glutamate, 90 ug/ml tRNA, 1.4 mM ATP, 50 ug/ml BSA, room temp (25 C), 1 nM DNA; filter binding: same mix on ice; SPR: 33 mM Tris-HCl pH 8.0, 5 mM MgCl2, 3 mM DTT, 25 C. The conditions noted are these: protein: recombinant; chain copies: 2;2; label: 32P 5'-end; blunt.

B1: DNA II (72 bp) (dsDNA)
DNA 1: ACTCTAGAGGATCCCCGGTTGGACTAAGTCCCCAGGCCCCTTAGCCACCACAACGTGGGTACCGAGCTCGAA
DNA 2: TTCGAGCTCGGTACCCACGTTGTGGTGGCTAAGGGGCCTGGGGACTTAGTCCAACCGGGGATCCTCTAGAGT
For the molecule B1, the binding result (in [1]; in [2]; in data set [3]; with GyrB (MsGyrB); in [4]; in data set [5] (label: 32P 5'-end)) was “binds” in each case. For the same molecule, the binding result with GyrB R321A is given as “no binding”; with ParE, “binds”.

B2: biotinylated 72 bp DNA (dsDNA)
DNA 1: ACTCTAGAGGATCCCCGGTTGGACTAAGTCCCCAGGCCCCTTAGCCACCACAACGTGGGTACCGAGCTCGAA
DNA 2: TTCGAGCTCGGTACCCACGTTGTGGTGGCTAAGGGGCCTGGGGACTTAGTCCAACCGGGGATCCTCTAGAGT
In the case of B2, in data set [6], the binding result was “binds”.

B3: DNA III (143 bp) (dsDNA)
DNA 1: GTAAAACGACGGCCAGTGCCAAGCTTGCATGCCTGCAGGTCGACTCTAGAGGATCCCCGGTTGGACTAAGTCCCCAGGCCCCTTAGCCACCACAACGTGGGTACCGAGCTCGAATTCGTAATCATGGTCATAGCTGTTTCCTG
DNA 2: CAGGAAACAGCTATGACCATGATTACGAATTCGAGCTCGGTACCCACGTTGTGGTGGCTAAGGGGCCTGGGGACTTAGTCCAACCGGGGATCCTCTAGAGTCGACCTGCAGGCATGCAAGCTTGGCACTGGCCGTCGTTTTAC
Consider B3, for which the binding result in data set [2] and in data set [5] (label: 32P 5'-end (forward primer)) was “binds” throughout.

B4: DNA I (40 bp) (dsDNA)
DNA 1: GGTTGGACTAAGTCCCCAGGCCCCTTAGCCACCACAACGT
DNA 2: ACGTTGTGGTGGCTAAGGGGCCTGGGGACTTAGTCCAACC
As for B4, the binding result in [2] and in data set [7] was “binds” each time.

Values taken from publication PMC3510509, “Binding of two DNA molecules by type II topoisomerases for decatenation”.
